The values below come from the DeepSol protein solubility set.

This series is described as follows: soluble on expression in E. coli; label from the status in PepcDB or PDB records.
As to “MSLKILDCTLRDGGYYTNWDFNSKIVDAYILAMNELPIDYLEVGYRNKPSKEYMGKFGYTPVSVLKHLRNISTKKIAIMLNEKNTTPEDLNHLLLPIIGLVDMIRIAIDPQNIDRAIVLAKAIKTMGFEVGFNVMYMSKWAEMNGFLSKLKAIDKIADLFCMVDSFGGITPKEVKNLLKEVRKYTHVPVGFHGHDNLQLGLINSITAIDDGIDFIDATITGMGRGAGNLKMELLLTYLNKHHGLNVDFNVLGNIITTFTPLLEKYQWGTNLPYMLSGANNIPQKEVMDWVTNRVYSFNSIIRALDNRKNKMEDNAKYPLLNIKNKFDRVVIIGGGFNAIEHKEAIKSFIETHTNTAIIFATARYAREYLDVNAPHFYCLVGNEGHRLTHNINPQNLSGICVLPPYPRPMGTEVPEYAKNVTFELENITFIDQYKDSVTTIALQLAILLTDQDIYLVGYDGYPGNVLSEKEMALTNENRTIFATYTTISGKILKSLTPSIYKEIEVVSVYQFEGHHHHHH”, the “soluble on expression in E. coli” value was “soluble”.
With DLDLEMLAPYIPMDDDFQLR, the “soluble on expression in E. coli” value was “soluble”.
With “MTKTQLVCDKNQLNWGLKAAKAIAGKSPYDVVQMRVSPDRDYLYICAVNAEATLVAKVELLVANISSEEDEIITIDKAKIPALILATAETGKKSEDSRPMAGICIRGKEVDFTDENGAGRGVDLTTIHRNDSAEIGDPVRTIIRVKQ”, the “soluble on expression in E. coli” value is reported as “not soluble”.
Regarding “MNKAIFLDRDGTLNIDYGYVHEIDNFKFIDGVIDALRELKKMGYMLVLVTNQSGIARGYFSEDQFLQLTEWMDWSLAEQDVDLDGIYYCPHHSEGKGEYKEDCDCRKPKSGMLLQAIKELKIDPTQSIMVGDKVEDLKAGIGAKVKMNVLVRTGKPVTGEGEGIADYVLDSIVDLPRILKRLKKLEHHHHHH”, the “soluble on expression in E. coli” value is given as “not soluble”.
As to “MGSDKIHHHHHHMSKNIKTPTNQKVLTNVAVVRMKKTGKRFEIACYKNKVVNWRNKSEKDIDEVLQTHTVFSNVSKGQLSKKEELIAAFGIEDQLEIYSRQRRLASVGKRASGGFRSIAERGSFFLLKNVSQLIASMVVNPETKRPVPPSVIDKALQEMHFSLKPNRSSKQQALDAIPKLRETLKIERAKMKIRVAIPTKEAKSVHTKLKTLFSDVEVDDWQDGSLEMVGLIEPGSFRALDDLVRNETKGHGRLEILSLKDVVEGELQIS”, the “soluble on expression in E. coli” value is reported as “not soluble”.
The entry for “MSLALPDFEFSFATRDEFDRKPVAKKLINILNSNIDISPMVIDGSWGTGKTEFCRKTIKLINDEFNETLICAYIDAFEADHTNDPLIPIVAAISELIEDSSKKIAFLNKAKAIFRYGLKASARASVAWLLRSNTETLDQEFQKELEKAVDEGSQNLVDGVITDYQEAKKDINSLKLILQDLTVEKKLVIFIDELDRCKPDFAIAIIEKIKHVFDVANVKFILVTNYTQMKASVNHCYGLALDAHRYLDKFIKFKFYLPTDKYSNKRKQHVSYHYADQLIRNSDILKAHSRYYLDSRFDLLNNLIIINELSLREISNFILYLELFHTLKSDQFAPDKWYHLSIFIIFILYFKPELREKIRKKDILASELCKFLGINSHIKAKELTHDKDGVSRDIATLIMIFLNDNSIPGYQSDDEEDFKGWLSKLALSTNVGYLELITYIEQFINDIFNEFQFVTKAAALEHHHHHH” is “soluble”; for “MGSDKIHHHHHHMPLKRLNRFRLWLWETPPVYEIRGRCFQIKERLCGYPELHRAFRERTGYELSLHHPCTFHHKITVLKIRRSPRIFVRAVDKIFAKELALEWAHQHGFRLYVARTLAVTKDVSEIRWHELPQRFLIKATHRSGANLFVDQSQAFDLDALRVQSRAWLQYPYGVYKHEWAYWPVPRRLLIEELIEPVDGEELVDYKFHMSRGRCLMIQVNQGLRSGKRTIAILHPSWQLQPVKWVYPQPEVIPQRPDTFYEMLEMASAFSREFPYLRVDLYSVKQVMSGVMVSRVMFGEFTFFPGSGSESVDPFAFDLAIGKEIKL” it is “not soluble”.
For “MANANPFARIADRYDGTPPRLRPPLVTQAVGEVIPFVDTAGCFVEAYTPRRVAVRLDNEERLHNHLGGLHAAALALLAETATGLVVALNVPDGSSPLLRTMDISFENFARDAVQAEATLTDAETSQVRSRPLGQIAVDVALTAPDDDTTLVAGTLTWAWVPEARLVDEGERLEHHHHHH”, the “soluble on expression in E. coli” value is given as “not soluble”.
For the sequence “MSWWCCIPKSKKGENPYSHGVSGIPPEKNIRLFSYSELRSATENFNRSNKIGRGGFGTVYKGTIRNGRDVAVKVLSAESRQGVREFLTEIDVITNVKHPNLVELIGCCVEGNNRILVYEYLENSSLDRALLGSNSEPANFTWSIRSAICIGIAKGLAYLHEEIASPIVHRDIKASNILLDKLYNPKIGDFGLAKLFPDNITHISTRVAGTTGYLAPEYAWHGQLTKRADIYSFGVLVLEIVSGKSSSRSLLADDKILLEKAWELHEVGKLKELVDSEMGDYPEEEVLRYIKTALFCTQAAAARRPSMPQVVTMLSKPIRINERELTAPGYIHDYNGTVSKATNSSNSRFKHSASDTSDMFSTVVPPTVSEISPR”, the “soluble on expression in E. coli” value was “not soluble”.
The entry for “MENRESAQRPHERLDAWRDSMELVEMIYRLTEVFPDQERYGLTAQLRRAAVSIPSNIAEGAARRSTPDYSRFLSIARGSLSELDTQVQIAARLGYSRSEDDQSVRRQVDLVFAKLTALMNALRRRGAA” is “soluble”.
For the sequence “MAHHHHHHMNEEILKNIKVNNNFLEFEEIIKDINTPFNFIDLVEIPCVPVVDLYGLSLLNNEAYLEYKSGLREDKLNADDEIKLTLFFAVKLYKKNIIRIKFPSYYDIIETLKFDPVSVTIGLFNQFYFETAYELCNLLPINEWPSTNFYDILRKAEKTRIHFLINNKTKLNSYFLEGLTNKEKKIYKYFLEGTSKEREKLNKETTLFHFYEKEKC”, the “soluble on expression in E. coli” value is “not soluble”.
In the case of “MGSDKIHHHHHHMITTARPNVLWIMADQLRFDYLSCYGHPHLHTPHIDALAARGVRFTNAYVQSPVCGPSRMSAYTGRYVRSHGSTWNGMPLRVGEPTLGDHLREAGARAVLVGKTHMVADAEGMAWLGIDPKSEIGVSRSECGFEPFERDDGLHPDSPRQRWSAYDDYLVSHGYDSQNPWEDFANSGVDADGELLSAWLLKNSRLAANVPEEHSETAYMTDRAMAFMEEAEADGRPWMCHLSYIKPHWPYIVPAPYHDMYDESHIIDPVRSEAERDNAHPLVGAYQNSRVCRTFSRDQVRDHVIPAYMGLIKQLDDNLGRLFAWMDARGLSENTIIAFTSDHGDYMGDHWMGEKDFYHEMAVKVPMIIADPRPQADGTRGHVADDLVEMIDLAPTFMTALGAAPKPHIIEGRDLTPLLHGTDGFARQYVISEYDYHWSEMAAALQVPQEDAHTTMIFDGRWKYIRCERFDPVLFDLETDPQELVDLGTSPAHAEIRALMDAALLKWATQHHTRITATAAVLAGQKIAAETGILIGFWDEAEFEAATGFPFTDLTPQGPPK”, the “soluble on expression in E. coli” value is “not soluble”.
With “MGSDKIHHHHHHLTLRVAVIGSGPAGSSAAETLAASGIETYLFERKLDNAKPCGGAIPLCMVSEFDLPPEIIDRRVRKMKMISPSNREVDINLINEDEYIGMCRREVLDGFLRDRAAKLGANLINATVHKLDIPGNNTDPYTIHYVDHTEGISQGIAKTLKVDLIIGADGANSRVAKEMDAGDYNYAIAFQERIRLPEDKMAYYNDLAEMYVGDDVSTDFYAWVFPKYDHVAVGTGTMHINKASIKQLQAGIRARASEKLAGGKIIKVEAHPIPEHPRPRRVVGRIALVGDAAGYVTKSSGEGIYFAAKSGRMCAETIVEASNSGSRIPTEGDLKIYLKRWDKRYGLTYKVLDILQSVFYRSDATREAFVEMCDDLDVQRLTFDSYLYKTVVPANPITQLKITAKTIGSLIRGNALAP”, the “soluble on expression in E. coli” value was “not soluble”.
In the case of “MGSDKIHHHHHHYGAQAYGMGGGGGGYNRPMNSYGNGYNNGGGFNNYGNGGGFGGNNYNNGPPPFDGGYNRPYGGGGGGGYGRPQGYVPPPPPPPTQPEPEPEPRPEPQPEPQPEPQPEPQPEPQPEPHPEPAPEPIVKPYNSYAQPHNSYVRYGGK” it was “not soluble”; in that of “MINRTLKQVEQMINGTGLAEQYEGITIQGVSIDTRKIEKGNLYVPIQGERFDGHAFVDKAVENGAVATLWVKDVANPPENLPVIFVEDTLSALQMLAKNYRDQLDVKVIGVTGSNGKTSTKDIVTSLLATKFKVQKTEGNFNNHIGLPLTILNLEENTEVAVLEMGMSSRGEIEFLSKLARPNAAIITNIGEAHLMDLGSREAIAEAKLEIVTGLQEGGVFVYNGDEPLLTNRVPEMNLIAETVTFGDARANDYYPTTVTLQATGTHFKMNREENISFYLPVLGKHNVYNTLASMAIAKYFGVTWEEMKEGLVTLQMTGMRMEIVKTDSGLTIINDAYNASPTAMEAAFHLMNGLDGFSKKIVVLGDMLELGDQEVQFHYEVGKLIDPAKISYVFTYGKLGAQIAEGAKINFPNERVKAYDNKEELVKELQAVVDTKDVVLVKASRGMKLEEVITMLK”, “not soluble”.
Turning to “MSLTARRFLNELADLYGVATSYTDYKGAHIEVSDDTLVKILRALGVNLDTSNLPNDDAIQRQIALFHDREFTRPLPPSVVAVEGDELVFPVHVHDGSPADVHIELEDGTQRDVSQVENWTAPREIDGIRWGEASFKIPGDLPLGWHKLHLKSNERSAECGLIITPARLSTADKYLDSPRSGVMAQIYSVRSTLSWGMGDFNDLGNLASVVAQDGADFLLINPMHAAEPLPPTEDSPYLPTTRRFINPIYIRVEDIPEFNQLEIDLRDDIAEMAAEFRERNLTSDIIERNDVYAAKLQVLRAIFEMPRSSEREANFVSFVQREGQGLIDFATWCADRETAQSESVHGTEPDRDELTMFYMWLQWLCDEQLAAAQKRAVDAGMSIGIMADLAVGVHPGGADAQNLSHVLAPDASVGAPPDGYNQQGQDWSQPPWHPVRLAEEGYIPWRNLLRTVLRHSGGIRVDHVLGLFRLFVMPRMQSPATGTYIRFDHNALVGILALEAELAGAVVIGEDLGTFEPWVQDALAQRGIMGTSILWFEHSPSQPGPRRQEEYRPLALTTVTTHDLPPTAGYLEGEHIALRERLGVLNTDPAAELAEDLQWQAEILDVAASANALPAREYVGLERDQRGELAELLEGLHTFVAKTPSALTCVCLVDMVGEKRAQNQPGTTRDMYPNWCIPLCDSEGNSVLIESLRENELYHRVAKASKRDEGHHHHHH”, the “soluble on expression in E. coli” value is given as “soluble”.
As for “LERRWRRRREAGAGAEAAAGSARPLGRQAAAARGSSPEAGAAAMAESIIIRVQSPDGVKRITATKRETAATFLKKVAKEFGFQNNGFSVYINRNKTGEITASSNKSLNLLKIKHGDLLFLFPSSLAGPSSEMETSVPPGFKVFGAPNVVEDEIDQYLSKQDGKIYRSRDPQLCRHGPLGKCVHCVPLEPFDEDYLNHLEPPVKHMSFHAYIRKLTGGADKGKFVALENISCKIKSGCEGHLPWPNGICTKCQPSAITLNRQKYRHVDNIMFENHTVADRFLDFWRKTGNQHFGYLYGRYTEHKDIPLGIRAEVAAIYEPPQIGTQNSLELLEDPKAEVVDEIAAKLGLRKVGWIFTDLVSEDTRKGTVRYSRNKDTYFLSSEECITAGDFQNKHPNMCRLSPDGHFGSKFVTAVATGGPDNQVHFEGYQVSNQCMALVRDECLLPCKDAPELGYAKESSSEQYVPDVFYKDVDKFGNEITQLARPLPVEYLIIDITTTFPKDPVYTFSISQNPFPIENRDVLGETQDFHSLATYLSQNTSSVFLDTISDFHLLLFLVTNEVMPLQDSISLLLEAVRTRNEELAQTWKRSEQWATIEQLCSEYPHPLPRHPVAGAGEQPTLHSSPLPVVPWIPHPAASWQVPSAMQRVETRPPCQARGRLR”, the “soluble on expression in E. coli” value was “soluble”.
For the sequence “MTSVGVPIKILHEAEGHMVTLETVTGEVYRGKLSEAEDNMNCQLAETVVTFRDGRSHQLDNVFIRGNKIRFMILPDMLKNAPMFKNIGRAQKGAIGMGLGGLDQRGRGRGTAFRRPMGRGGPRGMSRPGGAPTFRG”, the “soluble on expression in E. coli” value was “not soluble”.
As for “MERPGSGLAGVVVGCDDGRVEKLGPQAGFTAVACISWDNRLRLPLAGSLGLVRVDGVDATSVLAGLVLRLGAAGRPVLLDSLTIGGFNIVSPPGVERLTGSPVLAVYNYRPSLERLESGLRSSRLPLAGVRARVLSLVEEAAEASTPHGPVYLVAWGLEASEARRLVLETQVYGRKPEPVRIAHYTASEASEALRRV”, the “soluble on expression in E. coli” value is “not soluble”.
